Reference: article PMC8141644, “Design of a Trispecific Checkpoint Inhibitor and Natural Killer Cell Engager Based on a 2 + 1 Common Light Chain Antibody Architecture” (Frontiers in Immunology, 2021)

What was measured:
PD-L1-ECD = target: T1, PD-L1-ECD (Homo sapiens (; durvalumab …, UniProt Q9NZQ7); test: BLI; affinity determination as previously described (54); purified antibodies (loaded onto AHC biosensors, as told for the anti-CD16a variants), antigen in solution; Octet RED96, 30 °C, 1000 rpm; conditions: both partners purified
T1 construct: also called His-tagged PD-L1; source: bought: R&D systems (His-tagged PD-L1)

EGFR-ECD [1] = target: T2, EGFR-ECD (UniProt P00533); test: BLI; sterile filtered Expi293F cell culture supernatants of the light chain variants paired with the parental FEB4 heavy chain; conditions: one partner purified
T2 construct: epidermal growth factor receptor (EGFR), extracellular domain (EGFR-ECD); With anti-human-Fc (AHC) sensors it was probably the His-tagged one; also called epidermal growth factor receptor extracellular domain

EGFR-ECD [2] = target: T2, EGFR-ECD; test: BLI; affinity determination as previously described (54); purified antibodies (loaded onto AHC biosensors, as told for the anti-CD16a variants), antigen in solution; Octet RED96, 30 °C, 1000 rpm; conditions: both partners purified

T1 sequence (Q9NZQ7 19-238): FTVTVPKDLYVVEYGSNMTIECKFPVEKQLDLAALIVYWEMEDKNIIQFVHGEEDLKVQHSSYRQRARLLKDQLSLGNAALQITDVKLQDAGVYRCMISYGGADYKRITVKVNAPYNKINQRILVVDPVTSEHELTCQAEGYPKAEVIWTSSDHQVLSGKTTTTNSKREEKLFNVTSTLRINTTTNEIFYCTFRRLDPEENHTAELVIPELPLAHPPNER

B1: ICI2 (antibody, V domains shown)
VH: AVTLDESGGGLQTPGGALSLVCKASGFDFSSYDMAWVRQAPGKGLEWVAGIKSNGPWTNYGAAVKGRATISRDNGQSTVRLQLNNLRAEDTAIYYCAKPGAGYVGWDAAGTIDSWGHGTEVIVSS
VL: ALTQPSSVSANPGETVKITCSGGGYDGSYYYGWYQQKSPGSAPVTVIYDNTNRPSNIPSRFSGSLSGSTNTLTITGVQAEDEAVYFCGGYDRSGGIFGGGTTLTVL
notes: VH of ICI2 (chicken-derived); IgG1 constant region (CH1, hinge, Fc) with the LALA mutation; as the light chain of m10 (dFEB1-VL common light chain); IgG1 LALA chimeric antibody; source: Expi293F, purified (Protein A chromatography); copies: 2 + 2
**Q.** With B1 as the binder, how does the Kd (PD-L1-ECD) read?
**A.** 3 nM

B2: FEB4 (antibody, V domains shown)
VH: AVTLDESGGGLQTPGGALSLVCKASGFTFSSHGMLWVRQAPGKGLEFVAGISTDGSSTSYGAPVKGRATISRDNGQSTVRLQLNNLRAEDTGTYYCAKDAYRCRNCAEDIDAWGHGTEVIVSS
VL: ALTQPSSVSANPGETVKITCSGGYSDDGSYYYYGWFQQKSPGSAPVTVIYDNTNRPSNIPSRFSGSTSGSTSTLTITGVRAEDEAVYYCGSIDTGYAGIFGAGTTLTVL
notes: IgG1 constant region (CH1, hinge, Fc); standard IgG1 format; also called parental FEB4 mAb; parental antibody; copies: 2 + 2
**Q.** Does B2 bind (EGFR-ECD [1])?
**A.** binds

B3: dFEB4-1 (antibody, V domains shown)
VH: AVTLDESGGGLQTPGGALSLVCKASGFTFSSHGMLWVRQAPGKGLEFVAGISTDGSSTSYGAPVKGRATISRDNGQSTVRLQLNNLRAEDTGTYYCAKDAYRCRNCAEDIDAWGHGTEVIVSS
VL: ALTQPSSVSANPGETVKITCSGGGYDGSYYYGWYQQKSPGSAPVTVIYDNTNRPSNIPSRFSGSLSGSTNTLTITGVQAEDEAVYFCGGYDRSGGIFGGGTTLTVL
notes: as the heavy chain of m8 (parental FEB4 heavy chain); dFEB1-VL, chicken VL from the light chain shuffling; human lambda CL; IgG; also called parental FEB4 heavy chain with dFEB1-VL; source: Expi293F, co-transfected; sterile filtered culture supernatant, and purified (Protein A chromatography); copies: 2 + 2
**Q.** What does the source list for B3?
**A.** Kd (EGFR-ECD [2]): 6.4 nM; fold improvement in KD against the parental FEB4 (EGFR-ECD [2]): 5 fold
